Test results published in US20110027321.

Target: blue casein substrate (4-16% BlueCasein zymogram gel, Novex)

B1: recombinant 6 histidine tagged C. trachomatis HtrA polypeptide (serovar L2), purified from E. coli BL21 (DE3) (pET28-CtHtrA/L2) (protein)
chain: SPMLGYSASKKDSKADICLAVSSGDQEVSQEDLLKEVSRGFSRVAAKATPGVVYIENFPKTGNQAIASPGNKRGFQENPFDYFNDEFFNRFFGLPSHREQQRPQQRDAVRGTGFIVSEDGYVVTNHHVVEDAGKIHVTLHDGQKYTAKIVGLDPKTDLAVIKIQAEKLPFLTFGNSDQLQIGDWAIAIGNPFGLQATVTVGVVSAKGRNQLHIVDFEDFIQTDAAINPGNSGGPLLNINGQVIGVNTAIVSGSGGYIGIGFAIPSLMAKRVIDQLISDGQVTRGFLGVTLQPIDSELATCYKLEKVYGALVTDVVKGSPAEKAGLRQEDVIVAYNGKEVESLSALRNAISLMMPGTRVILKIVREGKTIEIPVTVTQIPTEDGVSALQKMGVRVQNITPEICKKLGLAADTRGILVVAVEAGSPAASAGVAPGQLILAVNRQRVASVEELNQVLKNSKGENVLLMVSQGDVVRFIVLKSDHHHHHHE
In the case of B1, the “protease activity in zymogram gel (zone of clearing)” value is reported as “Recombinant C. trachomatis HtrA degradation (i.e. proteolysis) of the blue casein substrate is visualized as a zone of clearing at ˜49 kDa”.
